Results: the nanobody polyreactivity screen of Harvey et al. (2022)

experiment: yeast display, Sf9 membrane polyspecificity reagent, FACS + sequencing; frameworks hold sequencing errors
Summary of the method: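 In a synthetic yeast display library (Saccharomyces cerevisiae BJ5465), nanobody expression was induced with galactose for 36–48 hours. FACS gates were set low and high (top ~1%) using anti-HA fluorescence for expression and streptavidin fluorescence for binding of the Sf9 membrane reagent. Each polyreactivity label is drawn from the gate of origin.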

Sequence | polyreactivity (PSR sort gate)
QVQLVESGGGLVQAGGSLRLSCAASGSTFVFYAMGWYRPAPGKERELVASISFRGGSTRYADSVKGRFTISRDNAKNTVYLHMNSLKPEDTAVYYCNARPFYRYYYWGQGTQVTVSS | high polyreactivity
QVQLVESGGGLVQAGGSLRLSCAASGSTFVGNAMGWYRQAPGKERELVAAISSDSSTYYADSVKGRFTISRDNAKNTVYLQMNSLKPEDTAVYYCAEYYPGYGYGYWGQGTQVTVSS | low polyreactivity
QVQLVESGGGLVQAGGSLRLSCAASGSTFVGNAMGWYRQAPGKERELVAAITGGGGSTYYADSVKGRFTISRDNAKNTVYLQMNSLKPEDTAVYYCARDRTDYYVWYVRYYYWGQGTQVTVSS | low polyreactivity
QVQLVESGGGLVQAGGSLRLSCAASGSTFVGTALGWYRQAPGKVRELVATISNSGGRTYYADSVKGRFTISRDNAKNTVYLQMNSLKPEDTAVYYCAADHPVFGPGYSFDYWGQGTQVTVSS | low polyreactivity
QVQLVESGGGLVQAGGSLRLSCAASGSTFVGYAMGWYRQAPGKEREFVAAITRGGSTNYADSVKGRFTISRDNAKNTVYLQMNSLKPEDTAVYYCAARDRREGFNFDYWGQGTQVTVSS | low polyreactivity
QVQLVESGGGLVQAGGSLRLSCAASGSTFVGYAMGWYRQAPGKERELVAGITASGTNTYYADSVKGRFTISRDNAKNTVYLQMNSLKPEDTAVYYCAAAFVRPPPYVGYSRFDYWGQGTQVTVSS | high polyreactivity
QVQLVESGGGLVQAGGSLRLSCAASGSTFVGYFMGWYRQAPGKERELVAAITKIGGSTYYADSVKGSFTISRDNAKNNVYLQMNSLKPEDTAVYYCARTRSRWRYPIFYYWGQGTQVTVSS | high polyreactivity
QVQLVESGGGLVQAGGSLRLSCAASGSTFVGYTLGWSRQAPGNERELVASLSWDGGSTYYADSVKGRFTISRDNAKNTVYLQMNSLKPEDTAVYYCNADQGIIGAYTNSLPEYDYWGLGTQVTVSS | low polyreactivity
QVQLVESGGGLVQAGGSLRLSCAASGSTFVGYTMGWYRQAPGKERELVASITSDGSTNYADSVKGRFTISRDNAKNTVYLQMNSLKPEDTAVYYCNADIRRHGGYAHEYWGQGTQVTVSS | low polyreactivity
QVQLVESGGGLVQAGGSLRLSCAASGSTFVINAMGWYRQAPGKERELVAAIDFSGGSTYYADSVKGRFTISRDNAKNTVYLQMNSLKPEDTAVYYCAAVLSSYGYGGYTWYDYEYWGKGTQVTVSS | high polyreactivity
QVQLVESGGGLVQAGGSLRLSCAASGSTFVIYGMGWYRQAPGKERELVADITWIGGSTYYADSVKGRFTISRDNAKNTVYLQMNSLKPEDTAVYYCAADAAYLYLYNWYDTEDDYWGEGTQVTVSS | low polyreactivity
QVQLVESGGGLVQAGGSLRLSCAASGSTFVKNAMGWYRQAPGKERELVAAIRSSGGSTYYADSVKGRFTISRDNAKNTVYLQMNSLKPEDTAVYYCNKVLQASRSKYYYWGQGTQVTVSS | high polyreactivity
QVQLVESGGGLVQAGGSLRLSCAASGSTFVKNAMGWYRQAPGKERELVAAISGRGGSTYYADSVKGRFTISRDNAKNTVYLQMNSLKPEDTAVYYCNKAYSVAYTYNYWGQGTQVTVSS | high polyreactivity
QVQLVESGGGLVQAGGSLRLSCAASGSTFVKNAMGWYRQAPGKERELVAAISYRGGRTYYADSVKGRYTISRDNAKNTVYLQMNSLKPEDTAVYYCNARYRTPSFIRMGYWGQGTQVTVSS | high polyreactivity
QVQLVESGGGLVQAGGSLRLSCAASGSTFVKYAMGWYRQAPGKERELVAAISWSGGRTYYADSVKGRFTISRDNAKNTVYLQMNSLKPEDTAVYYCAARSWYDRYPYYSWGQGTQVTVSS | high polyreactivity
QVQLVESGGGLVQAGGSLRLSCAASGSTFVLYAMGWYRQAPGKERELVAAITWTGGTTNYADSVKGRFTISLDNAKNTDYLQMNILQPEDTAVSYCAAKTNGRYDYWGQGTQVTVSS | low polyreactivity
